Reference: IntAct's records for PubMed 24612608

B1: Beta-secretase 1 (Homo sapiens), P56817 (parent)
chain: MAQALPWLLLWMGAGVLPAHGTQHGIRLPLRSGLGGAPLGLRLPRETDEEPEEPGRRGSFVEMVDNLRGKSGQGYYVEMTVGSPPQTLNILVDTGSSNFAVGAAPHPFLHRYYQRQLSSTYRDLRKGVYVPYTQGKWEGELGTDLVSIPHGPNVTVRANIAAITESDKFFINGSNWEGILGLAYAEIARPDDSLEPFFDSLVKQTHVPNLFSLQLCGAGFPLNQSEVLASVGGSMIIGGIDHSLYTGSLWYTPIRREWYYEVIIVRVEINGQDLKMDCKEYNYDKSIVDSGTTNLRLPKKVFEAAVKSIKAASSTEKFPDGFWLGEQLVCWQAGTTPWNIFPVISLYLMGEVTNQSFRITILPQQYLRPVEDVATSQDDCYKFAISQSSTGTVMGAVIMEGFYVVFDRARKRIGFAVSACHVHDEFRTAAVEGPFVTLDMEDCGYNIPQTDESTLMTIAYVMAAICALFMLPLCLMVCQWRCLRCLRQQHDDFADDISLLK
partner: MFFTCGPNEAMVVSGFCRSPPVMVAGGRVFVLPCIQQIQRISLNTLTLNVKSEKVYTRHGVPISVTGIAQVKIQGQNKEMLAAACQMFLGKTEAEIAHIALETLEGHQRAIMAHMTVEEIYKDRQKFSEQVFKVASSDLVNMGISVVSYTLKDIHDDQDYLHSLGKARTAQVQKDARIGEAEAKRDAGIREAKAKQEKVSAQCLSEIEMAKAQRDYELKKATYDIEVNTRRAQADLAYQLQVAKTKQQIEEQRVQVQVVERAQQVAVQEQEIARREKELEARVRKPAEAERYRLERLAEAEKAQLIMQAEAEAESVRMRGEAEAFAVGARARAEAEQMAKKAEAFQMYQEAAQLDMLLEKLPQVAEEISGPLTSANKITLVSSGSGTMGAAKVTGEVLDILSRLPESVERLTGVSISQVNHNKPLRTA

Variants of: B1
Conditions: with flot1_rat Flot1, Q9Z1E1

Row | effect of a mutation on the interaction | Variant
1 | disrupting interaction | L499A;L500A
